The series in a line: label from the status in PepcDB records.

Take “MRILDYDKVIERILEFIREKGNNGVVIGISGGVDSATVAYLATKALGKEKVLGLIMPYFENKDVEDAKLVAEKLGIGYKVINIKPIVDSFVENLELNLDRKGLGNIMSRTRMIMLYAHANSLGRIVLGTSNRSEFLTGYFTKWGDGASDYAPIINLYKTEVWEIAKRIGVPERIVKKKPSAGLWEGQTDEDELGISYNLLDEILWRMIDLKIGKEEIAKDLGIPLSLVERVEELIKKSEHKRRLPIGPSFEDLIVGP”: the protein production result is given as “not failed”.
In the case of “MRILIASQPIAGHVLPLREIARELARRGHELRWYTGRKFRPQVEAAGAVWEGFVHARDYDDANFDAAFPGRSARRGLAQLLFDLRHVFVGQMEGQFYDLRDLERRWRPDVVLADQTVGAALLREELGGPPVALLGVLPLGIASRDTAPFGLGLAPLGGAAGQLRNRALQVLTERVVFRGISAQLADLCTWLGLPARSFAPPVAPSLMLQPSVPRLEYLRRDLPPQVRFIGPLVLPAGEFTPPAWWNDILTAERPVVLVTQGTLATRPEQLLRPALAALADEDVLVVAAGVAPERLGPLPANARAAAFVPFTALLPHVAVSLTNGGYGGTVQALSHGVPCVVAGRSEDKAEVAARVAYSGAGLNLGTATPSPARIRAAVRRVLREPAFREQAGELGHELRQHDAPREAADWLETLGGKKLEHHHHHH” it was “failed”.
On to “MRILIPFKANNPKSRLSSILSEEERKELARLMLLDVIDAAKPFGEIKVVCPSELDVEGVEVVVDTSDLNTTVNKVMDEAPLAVIMSDLPLLSEEVLKRFFETEGDVVVAPGRKGGTNMLLVRKRGFRVSYHFGSFFKHLEMARKMGMKAKIFDSFYSSVDIDDESDLLELMMHGSGKKSYEFLRKIGFSVSFEETPRLERRVFMQ”, for which the protein production result is recorded as “failed”.
Regarding “MRILLVLAHPLEDSFAAAVARTAREALEASGHVVDLFDLYAENFDPRLSKAERGGYFDQPYDTSAVADIVARLKAADGLILVFPQWWFNFPAILKGFFDRVFAPGVAFSHDAAGGRIVPQLTHIRLLYALTTTGSPWWLVRLYMGDPVRRLLKRGIAAFCSKGLNFRMLSLHDMDRASDVKRRAHLDRVRKLLSAIR”, the protein production result is on record as “failed”.
In the case of “MRISKTTKIGALTLIALFLLYFGLNYLKGFNVFKRANVYYAAFPEVKNVNIASPVLVNGYKVGVVKSLSFDYKNGRSIVVGIDLESEYRMPKGSHLAIHQTALSGAELRIIQGDPRDGYLNPGDTIRSETPDDIMSVTSNKIVPSVVNMMPKVDSVIVGLANMVNNPNLAVMMENMAATAQRLNRLTASLDKSIGTQLPAVMANTRTITDNVAMLSEELKQLKLEALMAELQATSENLRSFSDQIRNSNGSLGMLLNDKSLYMRLDSMASSADALLRDLKANPKRYVHFSVF”, the protein production result was “failed”.
To “MRKAWVKTLALDRVSNTPVVILGIEGTNRVLPIWIGACEGHALALAMEKMEFPRPLTHDLLLSVLESLEARVDKVIIHSLKDNTFYATLVIRDLTYTDEEDEEAALIDIDSRPSDAIILAVKTGAPIFVSDNLVEKHSIELEVNETQDEEEEFKKFVENLNIDTFKQMIEKKREEDEEGES” belongs “not failed”; to “MRKEIRFSGFGGQGIILAGVILGRAASLYAGKEAVQTQSYGPEARGGASKSEVVISEIEIDFPKVIQPDILISMSQPAFDKYGYDLKENARVIVDRDLVNLPEGYEEKYEVYKVPFTEIANKEVGLGIVANIVMLGALTKLSGLVPKEEVEKALLDSIPKGTEKKNLMAFEKGYEYL”, “not failed”; to “MRKILEKVRRNRTYSFGKDLYDRTMRDDVAGLAAQLAYFFLLAIFPGLVFLITLLGFIDLQTESVLNLLEPYVPEDAMSLIEVNVDKVVNEQNGGLLSFGLLSMLWFASNGVNAVMNAFNRAYDVTETRSFIKTRALSIVFTLAIIFMIVFALIVPVFGQVIGAAVFKAIGLSDSFSYVWSITRLVASFFVLFALFSFLYTFAPDRKLKRREVISGATFATVGWIVVSYSFAYYVDKFANYANTYGGLGGIIILMLWFYLTGWVILLGGEINGLLHHYRTGDNNSRNEK”, “failed”.
To “MRKLDICIKSGLHFRTHRQHPDDDSVKTLTLECVDPQMVPVPRHWGRLAHRLLERAMTQATRPLPPPDGMGPTYRKILWRLIPFLFVCNLFNYLDRVNVGFAKLQMLRDLGMSQTVYGLGAGIFFIGYLACGVPSNLILQRIGARRWVAIMMVSWGLLSTCLLFVRTPAGFYTLRLLTGAAEAGFFPGILLYLTRWFPRDRHGRVTTVFMSAIPISGVLGGPLSGWILGYFSAGQGGLAGWQWMFLLQGLPTVLLGNGVWFLLSDGVQEASWLNPQEKQALARVLADDEAGKPAGASTSLRAVLCNPAVWLLGTVYFCIQSGVYAINFWLPSIIQDSGVTDPVRIGLMSAIPYLAAAVFMVLMGRSADRRGERRWHLVIPLLMGAAGLCIAASVTDNLGLALFGMTLATMGAVSGLPLFWPLTNGFLTAAAAAGGLALINSTGQVAGFVSPYLVGWIKDTTHSTQLALYVLAGAMLLGAALVLRVPACAVNQ” belongs “failed”; to “MRKLISIFLILCTFLLCGCSDVKHELNRLSLVLCSGIDLSEDGRYIYTVEILNVGASSPQSSGKQGASPSINVFSSEGHTITEAFNNASVLSGEPLFFAHSRMVVVGERLAKYGLSDMMDKLFRHYTIRPDGLIFVTKGNARDIVSTYTPDQPLPAEKLRTMSMLQEMTGYSISYSRLDLVKALTSKSHAGAIGLISLRPDQKFSNRFNMYGAGVFKKDKLVGYLDTYETRGLQWVTGHISSGSILVPLPDGKRIVFDIIDSKSKIKTKVNGNKLTMEINVAEESLISETNDKTNVMKHYKEMNKLAKLESEAIKKEVSSALAASQDRLKTDIFGFGSEIYRDNPKYWKTVENNWDNIFPNVNVKINVKCIVRRPGLTSQPII”, “failed”; to “MRKLRKLLLFSTVLFVVFTQLFGFIITVDAAETATINLSAEKQVIRGFGGMNHPVWISDLTPQQRDTAFGNGEGQLGFTILRIHVDENRNNWSKEVATARRAIELGAIVFASPWNPPSNMVETFTRNGVPNQKRLRYDKYGDYVQHLNDFVAYMKSNGVDLYAISVQNEPDYAHEWTWWTPQEMLRFMRDYAGQINCRVMAPESFQYLKNMSDPILNDPQALANLDILGAHFYGTTVNNMPYPLFEQKGAGKELWMTEVYVPNSDSNSADRWPEALEVAHNMHNALVEGNFQAYVWWYIRRSYGPMKEDGTISKRGYMMAHYSKFVRPGYVRVDATKNPTYNVYLSAYKNKKDNSVVAVVINKSTEAKTINISVPGTSIRKWERYVTTGSKNLRKESDINASGTTFQVTLEPQSVTTFVGGGSSEPQIPVERNAFSKIECEEYNATNSSTVQVVGTGTGSGLGYIENGNYFAYKNINFGNGANSFKIRAATTGTPKIEIRLGSPTGTLAGTLQVAATGGFNAYEEQSCSINKITGVQDVYLVFGGAVNVDWFTFESKQEPTFKYGDLNGDGNVNSTDSTLMSRYLLGIITTLPAGEKAADLNGDGKVNSTDYNILKRYLLKYIDKFPVES”, “failed”.
To “MRKLTALFVASTLALGAANLAHAADTTTAAPADAKPMMHHKGKFGPHQDMMFKDLNLTDAQKQQIREIMKGQRDQMKRPPLEERRAMHDIIASDTFDKVKAEAQIAKMEEQRKANMLAHMETQNKIYNILTPEQKKQFNANFEKRLTERPAAKGKMPATAELEHHHHHH” belongs “not failed”; to “MRKNDIADISPRDPMLALVLLTRLPLPALPEAAFARQAAAVWAFPLAGLAVGALAWATGALALAAGLAPVAVAGLMLVVLVMTTGGMHEDGLADTADGLWGGFTPERRLEIMKDSHIGTYGVLALILSQGLRLAALSALVAGGALGAAVAAAVWSRALMPVLMAALPNARGTGLSQSVGRPTPQAVTLGLGLAAVLALLLAGWAVLIPALLAVLSVLGLAALARAKIGGQTGDILGAAQQLAEITCLLALSAAL”, “failed”; to “MRKPIEHTADIAYEISGNSYEELLEEARNILLEEEGIVLDTEEKEKMYPLEETEDAFFDTVNDWILEISKGWAPWRIKREGNELKVTFRKIRKKEGTEIKALTYHLLKFERDGDVLKTKVVFDT”, “not failed”.
In the case of “MRKRIEWIDIAKGSAILAVVIGHTLGPYNGQFFGSLIFAFHMPIFFMLSGYLYRSRPARQECQRGIINLLLPYLATAVVLLVVSAIARLLPNPLLNAYFPSWRQGLIATAYGAGSAVFNPWHWQVQPIGAVWFLLSMFIALQLFNGVMLLTARRHQRWRQAIVRGGVFAIFAILGGWLGHAAYLPWAVNAALLAQLFLYAGYLVKQTALLSRISSAWYLLFTFMWLVSAFQGYFALTVPTSPNLLISVMGGVAGSLCIIRVSDWLSHYPNARPIKWLKRYGQLSLVVLCFHLIDLNVIGIEGWLTNHLITHMGPLVTTIIAISYRIGFVTVAMLAIPHLPGIRACFLPRQYLFRRLQRR”, the protein production entry was “failed”.
Take “MRKRNPRRATPEELRVCSVLKEKGTREELAHLAARGEWSNVPAYNASREQIADHLGKSVSPESDASFFDSRRFSEAIVLLKSRPVLLVKNGIFDEAPLAGLEQRLKKHRAALATPIRSVGRLELIDHDSMDWCGTGWRIEDDLIVTNRHVASLFAERQGSLFRFRLNQAGKQVRTRVDFREEYRQPESDEHVIARVLWIAPDVSEAPDMAILQVVKGDLLPPPLVLARQDAEPRQAVAVVGYPARDSRNDAGAMEDIFGNIYDVKRFAPGEVVGLPHDAWYLTHDCSTLGGNSGSAVLSIDGGEVVGLHFGGQFRKTNYAVKASVIRSLLARRAWVPVAGAELKRGVPRFQEKQRSVADLAERKGFDEAFLGPKAALPKPGKSHQVLPVGKGTRLDYLHFSVVMSASRRLPILTAVNIDGALKRSLKRKDSWGFDPRIEAAAQVGHKDFYGPASFDKGHMVRREDPGWGDSDAVARQAEDDTFVYTNAVPQVAQLNQRSWLSLEDYVLQNARSEGFRISVFTGPVFRDDDPLYQGVQVPLEFWKVVAMIDADSGELGVSAYLLGQEGMMPSEGFRYGAFKTYQVPLAKVEASADLRFSSALRKADVLAGTPLEEALESGRFIEIDGPDDLLLSRPGPAGKGPLRFRPAAATRVAVR”: the protein production result was “failed”.

Source of the values: a protein production outcome set (Wang et al. 2014).
